How the values were obtained:
hBAT-SVF clones = experiment: Clonal analysis: UCP1-luciferase response to BMP7 pretreatment; format: cell-based, human
Protocol: (§1) FIG. 8 depicts clonal analysis of human brown and white fat progenitors. Specifically, the strategy of clonal analysis of hWAT-SVF and hBAT-SVF progenitors is shown as a dendrogram. 152 clones from hWAT-SVF and 128 clones from hBAT-SVF were derived by limiting dilution from 4 subjects. Adipogenic capacity was determined by Nile red staining and UCP1 level was determined by luciferase activity on day 18. Detailed selection criteria are described in FIGS. 9 and 10. Selected highly adipogenic clones (adipogenic++) were pre-treated with 3.3 nM BMP7 for 6 days and then differentiated into mature adipocytes in a 96-well plate. Luciferase activity was measured on day 18 and divided into different levels (negative, Neg; low; medium, Med; high) after normalized to protein content. The positive response (+) to BMP7 pretreatment was defined by more than 1.5-fold increase of luciferase activity between BMP7-pretreated and vehicle groups.
(§2) Immortalized progenitor cells were plated and grown in DMEM/H medium supplemented with 10% FBS (day 0). For adipocyte differentiation, cell were grown for 6 days until reaching confluence (day 6), and then treated with the adipogenic induction medium as described above for 12 days (termed as day 18). To further stimulate thermogenic program, fully differentiated cells were incubated with 10 μM forskolin for 4 h. For BMPs and FGF21 pre-treatment, recombinant BMP7 (3.3 nM), BMP8 (3.3 nM), or FGF21 (50 nM) were added to undifferentiated cells in medium containing insulin (0.5 μM), T3 (2 nM) and 2% FBS for 6 days followed by adipogenic induction for 12 days. For BMPs and FGF21 post-treatment, fully differentiated adipocytes at day 18 were treated with recombinant BMP7 (3.3 nM), BMP8 (3.3 nM), or FGF21 (50 nM) in medium containing insulin (0.5 μM), T3 (2 nM) and 2% FBS for 2 days.
(§3) In vitro luciferase assays were performed using luciferase assay kits (Promega, Madison, Wis.) according to the manufacturer's instructions. Remove culture medium from differentiated adipocytes and wash cells in PBS. Dispense an appropriate volume of 1× lysis reagent (Passive Lysis Buffer) into each culture well. Scrape attached cells from the wells, and transfer the cell lysates into white 96-well plate (Corning Inc., Tewksbury, Mass.) for detection of the bioluminescence signal using luminometer plate reader (BioTek Instruments, Inc., Winooski, Vt.). Use a reagent injector to dispense 100 μL of Luciferase assay buffer with substrate and 100 μL of Stop & Glo Reagent. And perform a 2-second pre-measurement delay, followed by a 10-second measurement period for each reporter assay. Luciferase activity data were normalized to protein content.
(§4) To derive subclones of immortalized human white and brown progenitors with hUCP1-promoter-Luc/GFP reporter, limiting dilution of cells into 96-well plates was performed as previously described (Tchkonia, T., et al. Diabetes 55, 2571-2578, 2006). Briefly, cells were plated at 50 cells/96-well plate in DMEM/H containing 10% FBS. After 2 weeks, colonies were evident. Cells at approximately 80% confluence were trypsinized and further propagated in 48-well, then 12-well and finally 6-well plate. 152 clonal lines originated from neck superficial fat depot and 128 clonal lines from deep fat were selected for adipogenic potential after induction. The highly adipogenic clonal lines were selected for further analysis (67 clonal white fat progenitor lines; 90 clonal brown fat progenitor lines).

hWAT-SVF clones = experiment: as above; format: cell-based, human; settings: for clones UCP1(+), BMP7 Resp(+) / clones UCP1 (−), BMP7 Resp(+) / clones UCP1(−), BMP7 Resp(−): hWAT-SVF clones
Protocol: as §1, §2, §3, §4

B1: BMP7: Recombinant human BMP7, an inducer of brown adipogenesis (protein, UniProt P18075 293-431, looked up)
Bone morphogenetic protein 7: STGSKQRSQNRSKTPKNQEALRMANVAENSSSDQRQACKKHELYVSFRDLGWQDWIIAPEGYAAYYCEGECAFPLNSYMNATNHAIVQTLVHFINPETVPKPCCAPTQLNAISVLYFDDSSNVILKKYRNMVVRACGCH
hBAT-SVF clones; hBAT-SVF clones from Subject 2 and Subject 3
  clones that could respond to BMP7 stimulation: more than 60%
hBAT-SVF clones; hBAT-SVF clones, Subject 1
  clones UCP1(+), BMP7 Resp(+): 10/41
  clones UCP1(+), BMP7 Resp(−): 29/41
  clones UCP1(+), BMP7 Resp(−), percent: (71%)
  clones UCP1(−), BMP7 Resp(−): 2/41
hBAT-SVF clones; hBAT-SVF clones, Subject 2
  clones UCP1(+), BMP7 Resp(+): 10/15
  clones UCP1(+), BMP7 Resp(+), percent: (67%)
  clones UCP1(+), BMP7 Resp(−): 5/15
  clones UCP1(−), BMP7 Resp(−): 0/15
hBAT-SVF clones; hBAT-SVF clones, Subject 3
  clones UCP1(+), BMP7 Resp(+): 9/15
  clones UCP1(+), BMP7 Resp(+), percent: (60%)
  clones UCP1(+), BMP7 Resp(−): 3/15
  clones UCP1(−), BMP7 Resp(−): 3/15
hBAT-SVF clones; hBAT-SVF clones, Subject 4
  clones UCP1(+), BMP7 Resp(+): 5/19
  clones UCP1(+), BMP7 Resp(−): 14/19
  clones UCP1(+), BMP7 Resp(−), percent: (74%)
  clones UCP1(−), BMP7 Resp(−): 0/19
hBAT-SVF clones; hBAT-SVF clones, all subjects, response = more than 1.5-fold increase of luciferase activity
  clones that could be induced by BMP7 pretreatment: up to 37%
hBAT-SVF clones; majority of the hBAT-SVF clones from Subject 1 and Subject 4
  response to BMP7 pretreatment: not responsive
hWAT-SVF clones; Subject 1
  clones UCP1(+), BMP7 Resp(+): 0/32
  clones UCP1 (−), BMP7 Resp(+): 0/32
  clones UCP1(−), BMP7 Resp(−): 32/32
hWAT-SVF clones; Subject 2
  clones UCP1(+), BMP7 Resp(+): 0/20
  clones UCP1 (−), BMP7 Resp(+): 0/20
  clones UCP1(−), BMP7 Resp(−): 20/20
hWAT-SVF clones; Subject 3
  clones UCP1(+), BMP7 Resp(+): 1/12
  clones UCP1 (−), BMP7 Resp(+): 0/12
  clones UCP1(−), BMP7 Resp(−): 11/12
hWAT-SVF clones; Subject 4
  clones UCP1(+), BMP7 Resp(+): 0/3
  clones UCP1 (−), BMP7 Resp(+): 0/3
  clones UCP1(−), BMP7 Resp(−): 3/3
hWAT-SVF clones; highly adipogenic hWAT-SVF clones, response = more than 1.5-fold increase of luciferase activity
  clones that could respond to BMP7 pretreatment: 1%

— patent publication US11078259B2, “Methods and compositions for promoting thermogenic potential” (Joslin Diabetes Center, Inc., priority 2015, dated 2021)
